Values of other authors as cited in PMC11806408.

Target: BMP-10 GF growth factor (Homo sapiens) (UniProt O95393)
Sequence (O95393 317-424): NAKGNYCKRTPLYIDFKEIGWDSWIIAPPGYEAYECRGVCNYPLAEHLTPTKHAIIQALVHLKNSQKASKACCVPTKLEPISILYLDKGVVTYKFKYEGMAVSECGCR

Chain of BMP-10 PD prodomain (O95393 22-316): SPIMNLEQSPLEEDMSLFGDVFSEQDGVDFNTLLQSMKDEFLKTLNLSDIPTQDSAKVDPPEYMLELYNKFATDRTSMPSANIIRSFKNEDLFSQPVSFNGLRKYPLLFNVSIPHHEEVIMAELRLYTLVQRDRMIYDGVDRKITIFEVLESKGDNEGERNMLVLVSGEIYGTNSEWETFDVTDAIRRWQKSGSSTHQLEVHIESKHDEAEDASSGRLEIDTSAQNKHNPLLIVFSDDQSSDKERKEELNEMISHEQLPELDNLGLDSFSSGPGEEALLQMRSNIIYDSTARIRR

Kd: 7 nM
Substance: BMP-10 PD prodomain (from UniProt O95393)
